Measured values: publication PMC5472308, “Characterization of the regulation of a plant polysaccharide utilization operon and its role in biofilm formation in Bacillus subtilis” (PLoS ONE, 2017)

Biological target: His6-GanR (Bacillus subtilis 3610) (UniProt O07008)
Assay: EMSA
Conditions: 10 mM Tris-HCl (pH not stated), 50 mM NaCl, 1 mM EDTA, 5% glycerol, 1 mM DTT, 10 ug/ml BSA, on ice 20 min; Cy3 probes with poly-dIdC, gel 0.5X TBE at 4 C

His6-GanR (Bacillus subtilis 3610), sequence (O07008 whole entry): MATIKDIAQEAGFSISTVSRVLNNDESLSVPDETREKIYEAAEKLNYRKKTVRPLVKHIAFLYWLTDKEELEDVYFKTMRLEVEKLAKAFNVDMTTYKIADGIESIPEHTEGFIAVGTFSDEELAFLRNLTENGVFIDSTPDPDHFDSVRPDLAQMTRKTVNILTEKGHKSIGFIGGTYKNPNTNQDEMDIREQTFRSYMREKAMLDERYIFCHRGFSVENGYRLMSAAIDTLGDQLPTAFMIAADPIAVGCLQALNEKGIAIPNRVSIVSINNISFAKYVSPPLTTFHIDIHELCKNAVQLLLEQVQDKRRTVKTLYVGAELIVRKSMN

GTACGAATTCCCGCGCTGTATTCCGGCTTGAGAACAGCTTTTGAAAAGTAAGCTGTTTGGGAAAGTTAAATAATCTTTAATTCGAGATGTTTTACTTGAAAGTAAATTTCTTTGTCTCTATAATAAAGTCTAAGAGAGACAGAATAATCATTATGCATCTGTATGATAATAATTGATGTGTGATGGATCCGTAC (double strand) [PyvaB (yvaB promoter)]
binding: no binding
